Consider 5 molecules from article PMC2659343.

Data set [1] concerns the target T1, MCR1 (MBP-core RAG1);GST-core RAG2 (mouse?;mouse?, UniProt P15919;P21784 384-1008;1-387, |).
T1 sequence 1: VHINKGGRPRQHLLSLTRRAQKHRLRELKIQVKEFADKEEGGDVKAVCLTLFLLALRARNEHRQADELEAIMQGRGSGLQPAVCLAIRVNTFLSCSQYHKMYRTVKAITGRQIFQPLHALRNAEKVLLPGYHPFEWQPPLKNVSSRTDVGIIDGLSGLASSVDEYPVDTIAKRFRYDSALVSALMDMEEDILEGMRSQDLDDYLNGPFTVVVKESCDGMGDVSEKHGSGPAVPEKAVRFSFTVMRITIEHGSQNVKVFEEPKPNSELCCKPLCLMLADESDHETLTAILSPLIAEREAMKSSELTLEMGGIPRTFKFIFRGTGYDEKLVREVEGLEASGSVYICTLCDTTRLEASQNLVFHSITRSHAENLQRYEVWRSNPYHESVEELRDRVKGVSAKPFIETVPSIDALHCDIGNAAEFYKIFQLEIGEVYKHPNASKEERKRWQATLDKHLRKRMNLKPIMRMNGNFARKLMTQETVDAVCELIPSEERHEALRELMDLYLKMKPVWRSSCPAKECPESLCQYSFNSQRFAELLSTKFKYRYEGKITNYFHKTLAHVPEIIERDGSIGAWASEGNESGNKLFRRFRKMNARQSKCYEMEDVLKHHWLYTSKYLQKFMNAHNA
T1 sequence 2: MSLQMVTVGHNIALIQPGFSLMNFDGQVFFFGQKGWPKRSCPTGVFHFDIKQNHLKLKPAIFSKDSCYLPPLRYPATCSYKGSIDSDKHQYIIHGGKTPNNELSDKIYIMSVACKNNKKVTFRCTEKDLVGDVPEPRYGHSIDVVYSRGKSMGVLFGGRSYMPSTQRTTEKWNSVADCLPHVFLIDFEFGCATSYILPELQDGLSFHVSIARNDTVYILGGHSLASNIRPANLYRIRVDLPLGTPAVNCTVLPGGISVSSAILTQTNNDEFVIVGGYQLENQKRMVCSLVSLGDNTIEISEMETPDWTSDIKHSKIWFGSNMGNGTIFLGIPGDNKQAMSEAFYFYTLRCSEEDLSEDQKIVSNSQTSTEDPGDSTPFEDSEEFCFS
As to the kind of experiment: EMSA.

For data set [2], the target named is T2, MCR1 from 293T (co-expressed with GST-core RAG2);GST-core RAG2 (mouse?;mouse?, UniProt P15919;P21784 384-1008;1-387, |).
T2 sequence 1: T1 sequence 1
T2 sequence 2: T1 sequence 2
In words: EMSA.

The target in data set [3] is T2, MCR1 from 293T (co-expressed with …). In words: EMSA. This is another data set of the same source.
Data set [4] has as its target T3, MCR1 (MBP-core RAG1) (UniProt P15919 384-1008).
T3 sequence: T1 sequence 1
In words: EMSA.

Data set [5] concerns the target T3, MCR1 (MBP-core RAG1). In words: fluorescence anisotropy.
The target of data set [6] is T3, MCR1 (MBP-core RAG1). As to the kind of experiment: fluorescence anisotropy. The source holds these as a separate data set.
Data set [7] addresses T3, MCR1 (MBP-core RAG1). As to the kind of experiment: competition.
The target of data set [8] is T3, MCR1 (MBP-core RAG1). In words: EMSA. The source holds these as a separate data set.
Data set [9] deals with T1, MCR1 (MBP-core RAG1);GST-core RAG2. As to the kind of experiment: EMSA. The source holds these as a separate data set.
The target in data set [10] is T2, MCR1 from 293T (co-expressed with …). In words: EMSA. The source holds these as a separate data set.
Data set [11] addresses T3, MCR1 (MBP-core RAG1). As to the kind of experiment: fluorescence anisotropy. This is another data set of the same source.

Where two headings read alike, the source gives them in different places.

B1: WT 12-RSS (dsDNA)
DNA 1: GATATGGCTCGTCTTACACAGTGATATAGACCTTAACAAAAACCTCCAATCGAGCGGAG
DNA 2: CTCCGCTCGATTGGAGGTTTTTGTTAAGGTCTATATCACTGTGTAAGACGAGCCATATC
Consider B1, for which the Kd in data set [1] is 0.087 ± 0.01 µM; in data set [2] it was 0.025 ± 0.005 µM; in data set [3], 0.032 ± 0.005 µM; with MCR1 (MBP-core RAG1) [4], 0.114 ± 0.005 µM.

B2: Oregon Green WT 12-RSS (dsDNA)
DNA 1: B1 DNA 1
DNA 2: B1 DNA 2
With B2, the Kd with MCR1 (MBP-core RAG1) [5] was 0.123 µM; in the data set with MCR1 (MBP-core RAG1) [6], 0.027 ± 0.009 µM.

B3: unlabeled WT 12-RSS competitor (dsDNA)
DNA 1: B1 DNA 1
DNA 2: B1 DNA 2
As for B3, the IC50 with MCR1 (MBP-core RAG1) [7] was 0.15 µM.

B4: MHMN (mutant heptamer, mutant nonamer) (dsDNA)
DNA 1: GATATGGCTCGTCTTAGAGAAGCATATAGACCTTAAGGCTCTGATCCAATCGAGCGGAG
DNA 2: CTCCGCTCGATTGGATCAGAGCCTTAAGGTCTATATGCTTCTCTAAGACGAGCCATATC
B4 came in with a Kd with MCR1 (MBP-core RAG1) [8] of 0.123 ± 0.007 µM. Moreover, the binding result in [9] and in data set [10] was “no binding” in each case.

B5: Oregon Green MHMN (dsDNA)
DNA 1: B4 DNA 1
DNA 2: B4 DNA 2
As for B5, binding with MCR1 (MBP-core RAG1) [11] was put at a Kd of 0.028 ± 0.008 µM.
